Results published in patent US20040235098A1, “Sulfotransferase sequence variants” (Mayo Foundation for Medical Education and Research, a …, priority 1998, published 2004).

Columns and labels:
Type in all cases: biochemical, human
[1] = substrate: O=[N+]([O-])c1ccc(O)cc1; assay: Substrate kinetics of recombinant SULT1A2*1; settings: other: recombinant SULT1A2*1; 0.08 to 10.0 μM 4-nitrophenol; mean±SEM of nine
Method: (§1) Unless otherwise stated, concentrations of 4-nitrophenol and PAPS were 4 μM and 0.4 μM, respectively. Substrate kinetic experiments were conducted in the presence of a series of concentrations of 4-nitrophenol and PAPS to make it possible to calculate apparent Km values. Enzyme activity was expressed as nmoles of sulfate conjugated product formed per hr of incubation. Protein concentrations were measured by the dye-binding method of Bradford with bovine serum albumin (BSA) as a standard.
(§2) The concentration of 4-nitrophenol used to study each recombinant protein was the same as was used in the thermal stability experiments. All assays for the determination of apparent Km values, thermal stability or DCNP inhibition were performed in triplicate, and all experiments were performed at least three times, i.e., each of the data points shown subsequently represents the average of at least nine separate assays.
(§3) Apparent Km values were calculated by using the method of Wilkion with a computer program written by Cleland. […] Statistical comparisons of data were performed by ANOVA with the StatView program, version 4.5 (Abacus Concepts, Inc., Berkeley, Calif.).
(§4) Expression constructs for each of the common (frequencies≧1%) allozymes for SULT1A1 and SULT1A2 were used to transfect COS-1 cells. Selected biochemical and physical properties of the expressed enzymes were then determined. […]

[2] = substrate: O=[N+]([O-])c1ccc(O)cc1; assay: Substrate kinetics of recombinant SULT1A2*3; settings: other: recombinant SULT1A2*3; 0.08 to 10.0 μM 4-nitrophenol; mean±SEM of nine
Method: as §1, §2, §3, §4

[3] = substrate: O=[N+]([O-])c1ccc(O)cc1; assay: Substrate kinetics of recombinant SULT1A2*2; settings: other: recombinant SULT1A2*2; 1.0 to 1000 μM 4-nitrophenol; mean±SEM of nine
Method: as §1, §2, §3, §4

[4] = substrate: O=[N+]([O-])c1ccc(O)cc1; assay: Substrate kinetics of recombinant SULT1A3; settings: other: recombinant SULT1A3; 3.9 to 3000 μM 4-nitrophenol; mean±SEM of nine
[5] = substrate: O=[N+]([O-])c1ccc(O)cc1; assay: Substrate kinetics of recombinant SULT1A1*3; settings: other: recombinant SULT1A1*3; 0.02 to 5.0 μM 4-nitrophenol; mean±SEM of nine
Method: as §1, §2, §3, §4

[6] = substrate: O=[N+]([O-])c1ccc(O)cc1; assay: Substrate kinetics of recombinant SULT1A1*1; settings: other: recombinant SULT1A1*1; 0.02 to 5.0 μM 4-nitrophenol; mean±SEM of nine
Method: as §1, §2, §3, §4

B1: SULT1A2*1 (Homo sapiens) (protein)
chain: MELIQDISRPPLEYVKGVPLIKYFAEALGPLQSFQARPDDLLISTYPKSGTTWVSQILDMIYQGGDLEKCHRAPIFMRVPFLEFKVPGIPSGMETLKNTPAPRLLKTHLPLALLPQTLLDQKVKVVYVARNAKDVAVSYYHFYHMAKVYPHPGTWESFLEKFMAGEVSYGSWYQHVQEWWELSRTHPVLYLFYEDMKENPKREIQKILEFVGRSLPEETVDLMVEHTSFKEMKKNPMTNYTTVRREFMDHSISPFMRKGMAGDWKTTFTVAQNERFDADYAKKMAGCSLSFRSEL
notes: made in house; host or cells: COS-1 cells, pCR3.1 vector, unpurified cytosol
Km [1]: 8.70 ± 1.10 µM

B2: SULT1A2*3 (Homo sapiens; P19L) (protein)
chain: MELIQDISRPPLEYVKGVLLIKYFAEALGPLQSFQARPDDLLISTYPKSGTTWVSQILDMIYQGGDLEKCHRAPIFMRVPFLEFKVPGIPSGMETLKNTPAPRLLKTHLPLALLPQTLLDQKVKVVYVARNAKDVAVSYYHFYHMAKVYPHPGTWESFLEKFMAGEVSYGSWYQHVQEWWELSRTHPVLYLFYEDMKENPKREIQKILEFVGRSLPEETVDLMVEHTSFKEMKKNPMTNYTTVRREFMDHSISPFMRKGMAGDWKTTFTVAQNERFDADYAKKMAGCSLSFRSEL
notes: as for B1
Km [2]: 5.65 ± 1.14 µM

B3: SULT1A2*2 (Homo sapiens; I7T/N235T) (protein)
chain: MELIQDTSRPPLEYVKGVPLIKYFAEALGPLQSFQARPDDLLISTYPKSGTTWVSQILDMIYQGGDLEKCHRAPIFMRVPFLEFKVPGIPSGMETLKNTPAPRLLKTHLPLALLPQTLLDQKVKVVYVARNAKDVAVSYYHFYHMAKVYPHPGTWESFLEKFMAGEVSYGSWYQHVQEWWELSRTHPVLYLFYEDMKENPKREIQKILEFVGRSLPEETVDLMVEHTSFKEMKKTPMTNYTTVRREFMDHSISPFMRKGMAGDWKTTFTVAQNERFDADYAKKMAGCSLSFRSEL
notes: as for B1
Km [3]: 373 ± 33 µM

B4: SULT1A3 (Homo sapiens) (protein)
chain: MELIQDTSRPPLEYVKGVPLIKYFAEALGPLQSFQARPDDLLINTYPKSGTTWVSQILDMIYQGGDLEKCNRAPIYVRVPFLEVNDPGEPSGLETLKDTPPPRLIKSHLPLALLPQTLLDQKVKVVYVARNPKDVAVSYYHFHRMEKAHPEPGTWDSFLEKFMAGEVSYGSWYQHVQEWWELSRTHPVLYLFYEDMKENPKREIQKILEFVGRSLPEETMDFMVQHTSFKEMKKNPMTNYTTVPQELMDHSISPFMRKGMAGDWKTTFTVAQNERFDADYAEKMAGCSLSFRSEL
notes: as for B1
Km [4]: 4960 ± 810 µM

B5: SULT1A1*3 (Homo sapiens) (protein)
chain: MELIQDTSRPPLEYVKGVPLIKYFAEALGPLQSFQARPDDLLISTYPKSGTTWVSQILDMIYQGGDLEKCHRAPIFMRVPFLEFKAPGIPSGMETLKDTPAPRLLKTHLPLALLPQTLLDQKVKVVYVARNAKDVAVSYYHFYHMAKVHPEPGTWDSFLEKFMVGEVSYGSWYQHVQEWWELSRTHPVLYLFYEDMKENPKREIQKILEFVGRSLPEETVDFVVQHTSFKEMKKNPMTNYTTVPQEFMDHSISPFMRKGMAGDWKTTFTVAQNERFDADYAEKMAGCSLSFRSEL
notes: as for B1
Km [5]: 0.31 ± 0.01 µM

B6: SULT1A1*1 (Homo sapiens) (protein)
chain: MELIQDTSRPPLEYVKGVPLIKYFAEALGPLQSFQARPDDLLISTYPKSGTTWVSQILDMIYQGGDLEKCHRAPIFMRVPFLEFKAPGIPSGMETLKDTPAPRLLKTHLPLALLPQTLLDQKVKVVYVARNAKDVAVSYYHFYHMAKVHPEPGTWDSFLEKFMVGEVSYGSWYQHVQEWWELSRTHPVLYLFYEDMKENPKREIQKILEFVGRSLPEETVDFVVQHTSFKEMKKNPMTNYTTVPQEFMDHSISPFMRKGMAGDWKTTFTVAQNERFDADYAEKMAGCSLSFRSEL
notes: as for B1
Km [6]: 0.88 ± 0.07 µM
